Like-named read-outs stand apart in the source and are kept apart here. Non-standard residues stand in square brackets, D forms with d. Residues, ends and D or L forms follow the SMILES beside them. *: point of attachment. Dolaproine = CO[C@@H]([C@@H]1CCCN1)[C@@H](C)C(=O)O; Dil = CC[C@H](C)[C@H](NC)[C@@H](CC(=O)O)OC; X1 = C[C@@H](N*)[C@@H](O)c1ccccc1; NMeV = CN[C@H](C(=O)O)C(C)C
Key:
[1] = system: SUM159 xenograft; assay: Antitumor efficacy, SUM159 xenograft; format: in vivo, mice; settings: 10 mg/kg i.p., Fig. 2c
Method: (§1) In vivo therapeutic evaluations were performed to evaluate the antitumor effects of the PTK7-targeted ApDC Sgc8c-M with comparisons made between the chemotherapeutic drug paclitaxel and the ApDC’s toxic payload MMAE in most cases. […] All tumor models were established on female BALB/c nude mice. Briefly, a 50 μL suspension of tumor cells (SUM159: 5 × 10^6, MDA-MB-468: 1 × 10^7, MIA PaCa-2: 5 × 10^6, OVCAR3: 5 × 10^6, HT-29: 5 × 10^6, NCI-H1975: 5 × 10^6, A549: 5 × 10^6) mixed with an equal volume of Matrigel (BD) was injected s.c. into the right hind flank region of mice. For the TNBC PDX and pancreatic cancer PDX F4 and F5 models, 3–5 mm^3 of tumor fragments were implanted into the right hind flank region of mice. When tumor sizes reached approximately 100 mm^3–300 mm^3, the mice were randomly divided into control and treatment groups. Sgc8c-M (i.v.), paclitaxel (i.p.), MMAE (i.v.), or ADC h6M24-VcMMAE (i.v.) were administered to tumor-bearing mice respectively, and tumor volume and body weight were measured every 2 to 4 days following the initiation of treatment. […] Tumor volume was calculated according to the following equation: Tumor volume = (tumor length × tumor width^2)/2. TGI (%) was calculated as follows: TGI (%) = [1 – (mean of tumor volume in the treatment group)/(mean of tumor volume in the saline group)] × 100.

[2] = system: TNBC PDX; assay: Antitumor efficacy, TNBC PDX; format: in vivo, mice; settings: 10 mg/kg i.p.
Method: as §1

[3] = system: MIA PaCa-2 cells; assay: 72-h cytotoxicity (MTS), MIA PaCa-2; format: cell-based
Method: Cells were seeded in wells of a 96-well plate (6000 cells/well) and incubated overnight to allow for cell adherence. On the second day, 100 μL complete medium containing VcMMAE and Sgc8c-M (400, 200, 100, 50, 25, 12.5, and 6.25 nM), as well as MMAE (5, 2.5, 1.25, 0.625, 0.3125, 0.15625, and 0.078125 nM), were added to wells of a 96-well plate for an additional 72-h incubation at 37 °C. At the end of incubation, 100 μL of CellTiter 96® Aqueous One Solution Cell Proliferation Assay (MTS, Promega) solution (prepared by mixing 2 mL MTS with 9 mL of complete medium) were added to each well. The plates were then incubated for an additional 1–2 h to allow for the formation of formazan crystals. The absorbance of each well was measured at 490 nm using a Multi-Mode Microplate Reader (TECAN, SPARK) to assess cell viability. Cell viability was calculated as [OD490 (treatment) - OD490 (blank)]/[OD490 (nontreatment) - OD490 (blank)] × 100%.

[4] = parameters: method as in PMID 31877330; settings: cited from earlier work
[5] = system: MDA-MB-468 xenograft; assay: Antitumor efficacy, MDA-MB-468 xenograft; format: in vivo, mice; settings: free MMAE at equivalent dose (0.359 mg/kg i.v.)
Method: as §1

[6] = biological target: T1, human PTK7 (Homo sapiens, UniProt Q13308); assay: SPR binding to recombinant human PTK7
T1 construct: His; purchased Sino Biological 19399-H08H
T1 sequence (Q13308 31-704 limits assumed): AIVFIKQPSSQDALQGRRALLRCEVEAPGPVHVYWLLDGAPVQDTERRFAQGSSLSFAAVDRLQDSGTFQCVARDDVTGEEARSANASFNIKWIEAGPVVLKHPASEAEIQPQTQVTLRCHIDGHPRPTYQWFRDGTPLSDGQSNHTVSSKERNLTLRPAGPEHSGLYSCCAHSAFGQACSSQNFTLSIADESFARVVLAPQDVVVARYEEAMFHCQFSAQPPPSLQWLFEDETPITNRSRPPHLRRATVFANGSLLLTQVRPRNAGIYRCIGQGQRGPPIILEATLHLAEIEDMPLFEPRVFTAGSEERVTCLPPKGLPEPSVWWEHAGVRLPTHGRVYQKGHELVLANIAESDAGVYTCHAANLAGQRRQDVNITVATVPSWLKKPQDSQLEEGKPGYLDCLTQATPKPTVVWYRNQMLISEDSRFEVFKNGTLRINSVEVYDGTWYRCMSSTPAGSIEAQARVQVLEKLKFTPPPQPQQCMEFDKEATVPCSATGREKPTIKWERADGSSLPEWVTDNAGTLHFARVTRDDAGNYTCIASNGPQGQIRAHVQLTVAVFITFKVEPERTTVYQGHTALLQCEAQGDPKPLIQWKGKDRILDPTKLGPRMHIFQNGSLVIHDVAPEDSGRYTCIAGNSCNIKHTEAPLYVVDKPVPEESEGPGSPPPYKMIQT
Text: For SPR analysis, human (#19399-H08H, Sino Biological), mouse (HY-P78761, MCE), rat (HY-P78619, MCE), and cynomolgus monkey (#90979-C08H, Sino Biological) PTK7 proteins with His tags were immobilized on a carboxymethylated dextran CM5 chip on SPR (Cytiva Biacore 8 K). Sodium acetate buffer (NaAC) at pH 5.0/5.5 was used for human and cynomolgus monkey PTK7 proteins, while a pH of 4.5 was applied for mouse and rat PTK7 proteins. His protein was simultaneously immobilized on the CM5 chip as a control using pH 4.5 NaAC. The final concentration of all above proteins was 10 μg/mL. Unreacted carboxyl groups were subsequently deactivated using ethanolamine-HCl. Sgc8c were diluted to 25, 50, 100, 200, and 400 nM in running buffer (DPBS supplemented with 5 mM MgCl2), and Sgc8c-M and Ctrl-M were diluted to 400 nM. Sgc8c, Sgc8c-M, and Ctrl-M were sequentially injected over the immobilized surface from low to high concentrations for a 180-s association phase followed by a 180-s dissociation phase at a flow rate of 10 µL/min. The capture surface was regenerated after each cycle with a 30-s contact time of 1.5 M NaCl at a flow rate of 30 µL/min. The equilibrium dissociation constant (Kd) was subsequently analyzed by Biacore Insight Evaluation software.

[7] = biological target: T2, PTK7 (mouse, UniProt Q8BKG3 23-696); assay: SPR; 5 mM Mg2+; Kd only in figure; SPR (Biacore 8K, CM5): DPBS + 5 mM MgCl2, 10 uL/min, 180 s association and dissociation; temperature and pH of running buffer not stated; settings: protein: commercial; tags: His
T2 sequence: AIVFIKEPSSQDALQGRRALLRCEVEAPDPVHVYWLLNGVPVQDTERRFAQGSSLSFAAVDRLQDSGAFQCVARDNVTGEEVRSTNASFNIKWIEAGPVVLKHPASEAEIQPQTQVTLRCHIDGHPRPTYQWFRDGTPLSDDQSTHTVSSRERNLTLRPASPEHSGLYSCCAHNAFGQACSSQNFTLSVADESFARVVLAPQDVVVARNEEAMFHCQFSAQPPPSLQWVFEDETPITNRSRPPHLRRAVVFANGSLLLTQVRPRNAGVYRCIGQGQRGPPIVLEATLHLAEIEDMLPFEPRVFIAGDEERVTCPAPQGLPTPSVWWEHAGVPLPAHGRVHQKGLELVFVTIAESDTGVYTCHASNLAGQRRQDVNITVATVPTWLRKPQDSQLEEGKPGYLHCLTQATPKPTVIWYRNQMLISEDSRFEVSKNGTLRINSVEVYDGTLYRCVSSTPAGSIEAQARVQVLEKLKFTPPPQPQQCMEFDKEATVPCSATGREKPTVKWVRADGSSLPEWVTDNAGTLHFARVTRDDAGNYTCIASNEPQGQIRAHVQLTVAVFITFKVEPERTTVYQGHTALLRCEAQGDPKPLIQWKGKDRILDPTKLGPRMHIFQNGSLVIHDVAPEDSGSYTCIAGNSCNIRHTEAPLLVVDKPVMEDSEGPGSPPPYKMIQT

[8] = biological target: T3, PTK7 (rat, UniProt A0A8I6AKN3 23-696); assay: as above; settings: protein: commercial; tags: His
[9] = biological target: T4, PTK7 (human, UniProt Q13308 31-704); assay: as above; settings: protein: commercial; tags: His
T4 sequence: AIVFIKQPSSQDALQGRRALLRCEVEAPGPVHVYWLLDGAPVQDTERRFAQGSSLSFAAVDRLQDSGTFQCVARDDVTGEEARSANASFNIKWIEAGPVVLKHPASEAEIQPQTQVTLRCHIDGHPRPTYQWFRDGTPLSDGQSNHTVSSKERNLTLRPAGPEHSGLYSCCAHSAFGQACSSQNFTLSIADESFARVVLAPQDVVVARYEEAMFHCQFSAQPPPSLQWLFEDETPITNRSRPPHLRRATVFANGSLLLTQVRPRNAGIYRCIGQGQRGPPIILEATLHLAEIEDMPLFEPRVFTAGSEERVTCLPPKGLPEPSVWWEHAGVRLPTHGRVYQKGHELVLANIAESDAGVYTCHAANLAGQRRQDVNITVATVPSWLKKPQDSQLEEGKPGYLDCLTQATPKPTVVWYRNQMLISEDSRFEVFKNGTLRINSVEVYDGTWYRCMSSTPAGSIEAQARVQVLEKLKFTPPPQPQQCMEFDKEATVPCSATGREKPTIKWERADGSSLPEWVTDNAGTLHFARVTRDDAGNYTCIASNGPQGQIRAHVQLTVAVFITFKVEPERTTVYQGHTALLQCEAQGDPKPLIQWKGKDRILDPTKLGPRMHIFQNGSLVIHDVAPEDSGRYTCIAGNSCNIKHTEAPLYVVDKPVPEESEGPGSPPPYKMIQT

[10] = biological target: T2, PTK7; assay: SPR; 5 mM Mg2+; 400 nM; Kd only in figure; SPR (Biacore 8K, CM5): DPBS + 5 mM MgCl2, 10 uL/min, 180 s association and dissociation; temperature and pH of running buffer not stated; settings: protein: commercial; tags: His
[11] = biological target: T3, PTK7; assay: as above; settings: protein: commercial; tags: His
[12] = biological target: T4, PTK7; assay: as above; settings: protein: commercial; tags: His
[13] = biological target: T4, PTK7; assay: SPR; 5 mM Mg2+; 400 nM; SPR (Biacore 8K, CM5): DPBS + 5 mM MgCl2, 10 uL/min, 180 s association and dissociation; temperature and pH of running buffer not stated; settings: protein: commercial; tags: His

For `CC(=O)O[C@H]1C(=O)[C@@]2(C)[C@H]([C@H](OC(=O)c3ccccc3)[C@]3(O)C[C@H](OC(=O)[C@H](O)[C@@H](NC(=O)c4ccccc4)c4ccccc4)C(C)=C1C3(C)C)[C@]1(OC(C)=O)CO[C@@H]1C[C@@H]2O` [paclitaxel], the “tumor growth relative to saline controls” value [1] was “partially reduced tumor growth” and the “tumor growth compared to saline controls” value [2] was “failed to significantly inhibit tumor growth”.

In the case of `CC[C@H](C)[C@@H]([C@@H](CC(=O)N1CCC[C@H]1[C@H](OC)[C@@H](C)C(=O)N[C@H](C)[C@@H](O)c1ccccc1)OC)N(C)C(=O)[C@@H](NC(=O)[C@@H](NC)C(C)C)C(C)C` [MMAE, monomethyl auristatin E] (H-[NMeV]V[Dil][Dolaproine]-X1), the “IC50 lower than that of Sgc8c-M” value ([3]; MIA PaCa-2) is listed as “approximately 48 fold”, the IC50 ([3]; MIA PaCa-2, 72-h incubation) is listed as 0.389 nM and the mortality ([4]; single administration of 0.16 mg/kg) is listed as 100%. The TGI [5] was 76%.

B1: h6M24-VcMMAE: PTK7-targeted ADC (DAR4): antibody of h6M24-vc0101 conjugated with the same MMAE payload (conjugate, chains of the INN, looked up)
VH: QVQLVQSGPEVKKPGASVKVSCKASGYTFTDYAVHWVRQAPGKRLEWIGVISTYNDYTYNNQDFKGRVTMTRDTSASTAYMELSRLRSEDTAVYYCARGNSYFYALDYWGQGTSVTVSS
VL: EIVLTQSPATLSLSPGERATLSCRASESVDSYGKSFMHWYQQKPGQAPRLLIYRASNLESGIPARFSGSGSGTDFTLTISSLEPEDFAVYYCQQSNEDPWTFGGGTKLEIK
modifications: vcMMAE payload, DAR4
In the case of B1, the Kd [6] is reported as 3.18 nM.

ATCTAACTGCTGCGCCGCCGGGAAAATACTGTACGGTTAGA (structured_DNA) [Sgc8c]: binds [7]; binds [8]; binds [9].

ATCTAACTGCTGCGCCGCCGGGAAAATACTGTACGGTTAGA (structured_DNA, 3'-C6-S-maleimide MC-VC-PAB-MMAE conjugate) [Sgc8c-M]: binds [10]; binds [11]; binds [12].

AGATTGGCATGTCATAAAAGGGCCGCCGCGTCGTCAATCTA (ssDNA, 3'-C6-S-maleimide MC-VC-PAB-MMAE conjugate) [Ctrl-M]: no binding [13].

B2: Disitamab vedotin: clinically approved ADC, anti-HER2 antibody conjugated with MMAE (conjugate, chains of the INN, looked up)
VH: EVQLVQSGAEVKKPGATVKISCKVSGYTFTDYYIHWVQQAPGKGLEWMGRVNPDHGDSYYNQKFKDKATITADKSTDTAYMELSSLRSEDTAVYFCARNYLFDHWGQGTLVTVSS
VL: DIQMTQSPSSVSASVGDRVTITCKASQDVGTAVAWYQQKPGKAPKLLIYWASIRHTGVPSRFSGSGSGTDFTLTISSLQPEDFATYYCHQFATYTFGGGTKVEIK
modifications: MMAE payload
notes: clinically approved ADC, anti-HER2 antibody conjugated with MMAE
For B2, the mortality ([4]; single injection of 18 mg/kg (approx. 0.35 mg/kg MMAE)) is given as 50%.

From publication PMC12457637, “An aptamer-drug conjugate for promising cancer therapy with comprehensive evaluation from rodents to non-human primates” (Signal Transduction and Targeted Therapy, 2025)
